Assay results taken from paper PMC7841142.
Where “and” joins values, the source holds several entries; their conditions need not be identical. Equal entries are not always repeated.

T1: Fgfr1a-IIIc, membrane-bound, Myc- and 6x His-tagged (complete coding sequence), on CHO-K1 cells (zebrafish), Q90Z00
T1 chain: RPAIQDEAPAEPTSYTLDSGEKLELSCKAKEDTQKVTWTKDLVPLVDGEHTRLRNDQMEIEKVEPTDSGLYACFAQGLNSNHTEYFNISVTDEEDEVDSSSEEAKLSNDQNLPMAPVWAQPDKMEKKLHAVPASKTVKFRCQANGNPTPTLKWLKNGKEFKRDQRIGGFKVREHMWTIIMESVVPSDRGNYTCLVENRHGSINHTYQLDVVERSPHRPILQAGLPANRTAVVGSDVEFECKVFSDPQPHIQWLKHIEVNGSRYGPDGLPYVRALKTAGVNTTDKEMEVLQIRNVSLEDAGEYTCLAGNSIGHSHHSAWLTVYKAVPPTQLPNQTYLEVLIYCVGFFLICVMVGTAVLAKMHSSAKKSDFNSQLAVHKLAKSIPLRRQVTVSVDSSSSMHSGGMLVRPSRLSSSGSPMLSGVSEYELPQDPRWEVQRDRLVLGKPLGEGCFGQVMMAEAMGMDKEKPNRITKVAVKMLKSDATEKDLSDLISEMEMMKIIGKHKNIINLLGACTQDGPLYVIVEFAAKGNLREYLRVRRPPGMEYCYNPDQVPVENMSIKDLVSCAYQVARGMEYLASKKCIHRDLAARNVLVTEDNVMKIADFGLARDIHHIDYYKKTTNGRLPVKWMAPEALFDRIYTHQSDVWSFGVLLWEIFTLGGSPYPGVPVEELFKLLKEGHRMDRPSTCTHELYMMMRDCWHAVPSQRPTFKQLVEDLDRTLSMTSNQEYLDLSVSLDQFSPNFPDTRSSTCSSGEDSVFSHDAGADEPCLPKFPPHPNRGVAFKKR


Tests used:
[1] = biological target: Fgfr1a-IIIb, membrane-bound, Myc- and 6x His-tagged (complete coding sequence, exon 9.1 variant), on CHO-K1 cells (zebrafish); assay: immunostaining of cells or tissue; cell overlay assay: transfected CHO-K1 cells (membrane-bound His-tagged protein) on fibronectin-coated coverslips incubated with 20 μg/ml soluble Fc-tagged protein for 1 h at room temperature, washed, fixed, stained with anti-His and anti-hFcγ; read out as binding coefficient (percent of transfected cells co-labelled) and as fluorescence intensity of transfected vs. untransfected cells
[2] = biological target: Ncam1b, Myc- and 6x His-tagged (complete coding sequence), in Hek293 cells (zebrafish); assay: co-IP; Hek293 cells co-transfected with Myc/His-tagged Ncam1a or Ncam1b and FLAG-tagged Fgfr1a-IIIb or -IIIc; lysates precipitated with anti-His antibody and ProteinA beads, blotted with biotinylated FLAG-antibody; band density by Fiji, three independent experiments
[3] = biological target: Ncam1a, Myc- and 6x His-tagged (complete coding sequence), in Hek293 cells (zebrafish); assay: as above
Chain of Ncam1a, Myc- and 6x His-tagged (complete coding sequence), in Hek293 cells (zebrafish) (main, as listed by the source): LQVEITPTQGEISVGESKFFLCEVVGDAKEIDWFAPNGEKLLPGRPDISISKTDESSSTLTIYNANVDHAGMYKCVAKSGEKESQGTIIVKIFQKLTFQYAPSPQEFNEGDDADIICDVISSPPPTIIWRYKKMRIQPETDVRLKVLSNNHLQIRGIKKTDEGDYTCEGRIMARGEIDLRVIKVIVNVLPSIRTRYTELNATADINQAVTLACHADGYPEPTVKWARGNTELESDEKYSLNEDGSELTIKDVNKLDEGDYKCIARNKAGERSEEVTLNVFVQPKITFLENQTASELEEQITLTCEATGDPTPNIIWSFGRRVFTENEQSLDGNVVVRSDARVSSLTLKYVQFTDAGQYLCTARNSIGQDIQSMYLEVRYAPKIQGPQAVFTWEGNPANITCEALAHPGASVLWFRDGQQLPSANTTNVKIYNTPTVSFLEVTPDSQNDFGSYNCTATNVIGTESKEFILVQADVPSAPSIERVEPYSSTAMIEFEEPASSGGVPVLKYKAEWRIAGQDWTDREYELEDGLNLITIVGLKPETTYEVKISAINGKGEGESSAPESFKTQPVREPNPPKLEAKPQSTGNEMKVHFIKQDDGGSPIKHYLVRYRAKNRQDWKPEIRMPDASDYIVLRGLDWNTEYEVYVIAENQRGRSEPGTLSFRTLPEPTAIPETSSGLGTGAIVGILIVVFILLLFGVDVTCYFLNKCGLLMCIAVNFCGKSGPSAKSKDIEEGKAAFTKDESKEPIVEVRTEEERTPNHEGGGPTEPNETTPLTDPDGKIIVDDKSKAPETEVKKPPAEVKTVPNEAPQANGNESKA

[4] = biological target: Ncam1b, membrane-bound, Myc- and 6x His-tagged (complete coding sequence), on CHO-K1 cells (zebrafish); assay: immunostaining of cells or tissue; cell overlay assay: transfected CHO-K1 cells (membrane-bound His-tagged protein) on fibronectin-coated coverslips incubated with 20 μg/ml soluble Fc-tagged protein for 1 h at room temperature, washed, fixed, stained with anti-His and anti-hFcγ; read out as binding coefficient (percent of transfected cells co-labelled) and as fluorescence intensity of transfected vs. untransfected cells
[5] = biological target: T1, Fgfr1a-IIIc, membrane-bound, Myc- and …; assay: immunostaining of cells or tissue; cell overlay assay: transfected CHO-K1 cells (membrane-bound His-tagged protein) on fibronectin-coated coverslips incubated with 20 μg/ml soluble Fc-tagged protein for 1 h at room temperature, washed, fixed, stained with anti-His and anti-hFcγ; read out as binding coefficient (percent of transfected cells co-labelled) and as fluorescence intensity of transfected vs. untransfected …

Row | band density (Intensity Density) of co-precipitated FLAG-tagged receptor (Intensity Density) [2] | band density (Intensity Density) of co-precipitated FLAG-tagged receptor (Intensity Density) [3] | binding coefficient (percent of transfected cells co-labelled for the soluble partner) [4] | Molecule | other results
1 | – | – | – | soluble Ncam1b-Fc (extracellular part of Ncam1b with hIgG-Fc-Tag) (Fc fusion) | binding coefficient (percent of transfected cells co-labelled for the soluble partner) [1]: 90%; fluorescence intensity of bound soluble Ncam1b, transfected over untransfected cells [1]: 80 % higher
2 | 170000 and 203000 | 89500 | – | Fgfr1a-IIIb, FLAG-tagged (complete coding sequence), in Hek293 cells (receptor) | –
3 | 138000 | 117000 | – | Fgfr1a-IIIc, FLAG-tagged (complete coding sequence), in Hek293 cells (from UniProt Q90Z00 27-810) (receptor) | –
4 | – | – | 90% | soluble Fgfr1a-IIIb-Fc (extracellular part of Fgfr1a-IIIb with hIgG-Fc-Tag) (Fc fusion) | –
5 | – | – | 60% | soluble Fgfr1a-IIIc-Fc (extracellular part of Fgfr1a-IIIc with hIgG-Fc-Tag) (from UniProt Q90Z00 27-363) (Fc fusion) | –
6 | – | – | – | soluble Ncam1b-Fc (extracellular part of Ncam1b with hIgG-Fc-Tag) (Fc fusion, modifications not checked) LQVDITPAHGEISVGESRFFLCEVIGGAKEIDWFAPAGEKIEPGRPDISVIRNDETSSTLTIYNAKVDNAGTYRCVASSGDQDAEATVNLKIYQKITFTNVPSPQEFTEGDNAIIVCDVISSPPPTVLWKYKGAKIQFDKDVRFKTLSNNHLQIRGIRKTDEGVYTCEGRIKARGEVDFRSIKVVVNVLPTIRIRQAETNATADMGFSTLLACDPDGFPEPIVTWRRNNAPLESGNKYSFNEDGSEMTVLDVTKLDEGDYTCIAKNKAGESEQELSLKVFVQPKITYLESQTTTEMDEQVTLTCEATGDPTPTITWSFGTRVFTEGEQASWTRPEQHKGPDGEVLVRSDARVSSLTLKYPQYTDAGQYLCTARNAIGETVQPVSLEVRYAPKILGSVAVYTWEGNPANISCEVLAHPSDVSITWLRDGFQLPNANTSNIKIHNTPSASYLEVNPESQSDFGNYNCTASNEIGTESREFIMIPADVPSAPSIGEVQPYSSTAQVLFEEPESTGGVPVLKYRAEWRAVGRGKWVQRVYEVKDGLSSVTVTGLKPETDYEVKMSAINGKGEGDSSPSMVFKTEHVQGEPSPPILEGTLQPKGNSLKVKWIKQDDGGSPITHYLVRYKAREDSEWKPEIRLPSGSEYVMLIGLDWDTEYDVFVVAENQQGKSKPGTLTFRTSSEPTATTDSMEDGPGLNTG | binding coefficient (percent of transfected cells co-labelled for the soluble partner) [5]: 60%
